Test results taken from the nanobody polyreactivity screen of Harvey et al. (2022).

Assay: yeast display, Sf9 membrane polyspecificity reagent, FACS + sequencing; frameworks hold sequencing errors
Method in brief: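 Nanobodies came from a synthetic yeast display library in Saccharomyces cerevisiae BJ5465, induced with galactose for 36–48 hours and stained for 1 hour at 4 °C with 10% biotinylated, detergent-solubilized Sf9 membrane reagent. Cells were enriched on streptavidin microbeads and then FACS-sorted, with low and high (top ~1%) gates set on anti-HA fluorescence for expression and streptavidin fluorescence for reagent binding. Each polyreactivity label reflects the gate a clone came from. Genes were amplified by colony PCR, sequenced by MiSeq 2 × 250 and filtered by CDR length.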

Sequence	polyreactivity (PSR sort gate)
QVQLVESGGGLVQAGGSLRLSCAPSGRTFYSYAMGWYRHAPGKERELGAAITSSGGSTYYADSVKGRFTISRDNAKNTVYLQMNSLKPEDTAVYDCAAGKPYSSYWSWGYWTNLEDDYWGQGTQVNVSS	high polyreactivity
QVQLVESGGGLVQAGGSLRLSCAASGNIFDSNAMGWYRQAPGKERELVAAITWSGGSTYYADSVKGRFTISRDNAKNTVYLQMNSLKPEDTAVYYCNRYIRYYAWFGYWGQGTQVTVSS	high polyreactivity
QVQLVESGGCLVQAGGSLRLSCAASGRIFVTYAMGWYRQAPGNERELVAAITSRGGRTYYADSVKGRFTISRDYAKNTVYLQMNSLKPEDTAVYYCAASPGPGARYYYWCQGTQVTVSS	high polyreactivity
QVQLVESGGGLVQAGGSLRLSCAASGRIFYHYAMGWYRQPPGKESELVAAITWSGDSTYYADSVKGRFTISRDNAQNTVYLQMNSLKPEDTAVSYCATSSPYGVRRYSRGSWGQGTQVTVSS	high polyreactivity
QVQLVESGGGLVQAGGSLRLSCAASGSTFDRYAMGWYRQAPGKERELVAAISWSGGSTYYADSVKGRFTISRDNAKNTVYLQMNSLKREDTAVYYCARRYARITPVYPPLNYWGQGTQVTVSS	high polyreactivity
QLQLVESGGGLVQAGGSLRLSCAASGRIFDGNTMGWYRQAPGKERELVAAITYSGGRTSYADSVKGRFTISRDNAKNTVYLQMISLKPEDTAVYYCNARVVTGSWYEGYYWGQGTQVTVSS	low polyreactivity
QVQLVESGGGLVQAGGSLRLSCAASGFTFYNYAMGWYRQAPGKERELVAAISTSGGSTYYADSVKGRFTISRDNAKNTVYLQMNSLKPEDTAVYYCAAQATAYSYAYYYWGQGTQVTVSS	low polyreactivity
QDQLVESGGGLVQAGGSLRLSCAASGLIYSYYALGWSRQATGKERELVASISRSGGSTYYADSVKGRFTISRDNAKNTVYLQMNILKPEDPAVYYCDAPGYYRTSRMDYWGQGTQVTVSS	high polyreactivity
QVQLQESGGGLVQAGGSLGCAASGNISTRSEMGWYRQAPGKEREFVATINSGGITNYADSVKGRFTISRDNAKNTVYLRMNSLKPEDTAVYYRAVYGYFSDPYDYWGQGTQVTVSC	low polyreactivity
QVQLVESGGGLVQAGGSLRLSCAASGSTFGLYTMGWYRQAPGKARELVAVINRSGGSTYYADSVKGRFTISRDNAKNTVYLQMNSLKPEDTAVYYCAAQRAVAGGRLDYWGQGTQVTVSS	high polyreactivity
QVQLQESGGGLVQAGGCLRLSCAASGTIFDPDYMVWYHQAPGKERELVASISLGRMTYYADSVKGRFTINRDNAKNTVYVQMNTLKPEDTAVYYCAVRVETIYYYSYWGQGTQVTVSS	high polyreactivity
QVQLVESGGGLVQEGGSLRLSCAASGSTFYNYAMGLYRQAPGKERELVAAITSSGGSTYYADSVKGRFTISRDYAKNTVYLQMNSLKPEDTAVYYCNADDGYGQVHSISNYEMDYWGQGTQVTVSS	low polyreactivity
QVQLVESGGGLVQAGGSLRLSCAASGRTFGRYAMGWSRQAPGKERELVAAINRGGSTKYADSVKGRFTISRDNAKNTVYLQMNSLKPEDTAVYYCAKDRHPAVHYDYWGQGTQVTVSS	low polyreactivity
QVQLVESGGGLVQAGGSLRLSCAASGRIFYGNTMGWSRQAPGKERELVAAISLRGGSTYYADSVKGRFTISRDTAKNTVSLQMNSLKPEDTAVYYCAATGGRGPRRYYWGQGTQVTVSS	high polyreactivity
QVQLVESGGGLVQAGGSLRLSCAASGRIFFYNVMGWYRQAPGKERELVAAITTIGGSTYYADSVKGRFTISRDNAKNTVYLQMNSLKPEDTAVYYCAAGWVTNSDGMDYWGQGTQVTVSS	low polyreactivity
QVQLVESGGGLVQAGGSLRLSCAASGFIFRRYAMGWYRQAPGKERELVAAISGRGASTYYGDSVKGRFTISRDNAKNNVYVQMNSLKPEDTAAYYCNAVPDNLNYDYWGQGTQVTVSS	high polyreactivity

Sequence	polyreactivity (PSR sort gate)
QVQLVESGGGLVQAGGSLRLSCAASGSIFYNYAMGWYRQAPGKERELVATITRSDGSTYYADSVKGRFTISRENAKNTVYLQMNSLKPEDTAVYYCAADSGSTSEYEYWGQGTQGTVSS	low polyreactivity
QGQRVESGGGLVQAGGSLRLSCAASGSTFPWYAMGWYRQARGSERELVAGISEGGASTYYADSVKGRFTISRDNAKNTVYLQMNSLNPEDTAVYYCAADQVGAVYWVGEYGYWGQGTHVTVSS	low polyreactivity
QVQLVESGGGLVQAGGSLRLSCAASGRTFAYYAMGWYRQAPGKERELVAAISGNGGRTYYADSVKGRFTISRDNAKNTVYLQMNSLKPEDTAVYYCNAAVGYYSYSYYTKVGVDYWGQGSQVTVSS	high polyreactivity
QVQLVESGGGLVQAGGSLRLSCAASGITFWGYAMGWYRQAPGKEREFVARINWSGGRTYYAESVKGRFTISRDNAKKTVYLQMNSLKPEDTAVYYCAATSRIYGYRTYDDWGQGTQVTVSS	high polyreactivity
QVQRVESGGGLVQAGGSLRLSCAASGRIFVRNVMGWYRQAPGKEREFVAAITTRGGSTYYADSVKGRFTISRDNAKNTVYLQMNSLKPEDTAVYYCAARYTLRLYWGQGTQVTVSS	high polyreactivity
QVQLVESGGGLVQAGGSLRLSCAASGGTFVYSAMGWYRQAPGKERELVAAINWSGGSTYYADSVKGRFTISRDNAKNTVYLQMNILKAEDTAVLLLQRSGLRRSGVWFDYWGQGTQVTVSS	low polyreactivity
QVQLVESGGGLVQAGGSLRLSCAASGRTFTSYAMGWYRQAPGKERELVAGISSGGSTNYADSVKGRFTISRDNAKNTVYLQMNSLKPVDTAVYYCAAGFSPGTFYAPTLAFDYWGQGTQVTVSS	low polyreactivity
QVQLVESGGGLVQAGGSLRLSCAASGIIFYRYVMGWYRQAHGKERELVAAINNDGASTHYADSVKGRFTISRDNAKNTVYLQMNSLKPEDTAVYYCATRDSLYYRYWSNNYWGQGTQVTVSS	high polyreactivity
QVQLVESGGGLVQAGGSLRLSCSASGRIFQYYAMGWYIKAPGKERELVAAISGRGTSTYYADSVKGRFTISRDNAKNTVYLEMNSLKQEDTAVYYCNADINYKSYFIHTFTIIPYGYWGQGTQVTVSS	low polyreactivity
QVQLQESGGGLVQAGGSLRLGCAASGNISDAGYMGWYRQAPGKEREFVAAIAAGSNTNYADSVKGRFTISRDNAINTVYLQMNSLKPEVTAVFYCAVASYARVQYEYWGQGTQVTVNS	low polyreactivity
QVQLVESGGGLVQAGGSLRLSCAASGFIFRWYAMGWYRQAPGKERDLVATISSGGSTYYADSVKGRFTISRDNAMNTFYLQMISLKPEDTAVYYCAARFHYRGALYYYWGQGTQVTVSS	high polyreactivity
QVQLVESGGGLVQAGGSLRLSCAASGRILYPYAMGGYRQAPGKERELVAAITFIGGSTYYADSVKGRFTISRDNAKNTVYLQMNSLKPEDTAVYYCNAKPHRPSLLRWRIGNYWGQGTQVTVSS	high polyreactivity
QVQQQESGGGLVQAGGSLRLSCAASGNTSDTGYMGWYRQAPGKERKVVASIDYGSNTYYADSVKVRFTISRDNAKNTVYLQMNSLKPEDTAVYYCAAYYIGDYTLVYWGQGTQVTVSS	high polyreactivity
QVQLVESGGGLVQAGGRLRLSCAASGRTFYRNAMGWYRQAPGKERELVAGISVRGGRTYYADSVKGRFTISRDNAKNTVYLQMNSLKPEDTAVYYCNKRLSSSLSLKYDYWGQGTQVTVSS	high polyreactivity
QDQLVESGGGLVQAGGSLGLSCAASGITFDLYDMGWYRQAPGKERELVAAITDAHSTYYADSVKGRFTISRDNAKNTVYLQMNSLKPEDTAVYYCAADFFYSVDSGHYDYWGQGTQVTVSS	low polyreactivity
